Reference: the supplement of paper PMC9170038

System: MS2 coat protein
Assay: apparent KD of MS2 coat protein; designed switch direction (-1 OFF switch, 1 ON switch): -1; higher = weaker reporter binding
Summary of the method: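 Designed RNA switches with common flanks were transcribed on Illumina chips by stalled E. coli RNA polymerase and titrated with SNAP-549-labelled MS2 coat protein, from 0.7 or 1.5 nM doubling to 3 µM, in Tris-HCl pH 7.5 buffer with KCl, MgCl2, BSA, DTT, tRNA and Tween-20. Steps lasted 0.8–1.5 h (lowest) to 10–20 min (highest). Titrations ran without input, with 200 uM small-molecule ligand, or with an oligonucleotide input. Normalised cluster fluorescence was curve-fitted, and apparent KD is the per-design median over clusters.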

[1] = input ligand: microRNA oligo, concentration not stated
[2] = Eterna round: R95, input ligand: microRNA oligo, concentration not stated

For “GCGCGAAGGUAGGAUAUCCGGCGAUCUUCCGUCGGAGAAGGACCCACAUGAGGAUCACCCAUGUGGUGAUCCUG [eternacac ex6r4 sub13] (Eterna round: R97, puzzle: Exclusion 6)”, the “apparent KD of MS2 coat protein” value (input ligand: FMN 200 uM) was 12 nM and the “apparent KD of MS2 coat protein” value (input ligand: none) was 23.9 nM.
For “GCGCGAAGGUAGGAUAUCGACGGAUCUUCCGGCCGAGAAGGACCCACAUGAGGAUCACCCAUGUGGUGAUCCUG [eternacac ex6r4 sub10] (Eterna round: R97, puzzle: Exclusion 6)”, the “apparent KD of MS2 coat protein” value (input ligand: FMN 200 uM) was 17.5 nM and the “apparent KD of MS2 coat protein” value (input ligand: none) was 16.5 nM.
With “GCGCGGUGAGGAUAUGCGGCGCGCGGGCGCGGGCGGGCGCGGCAGAAGGCACAUGAGGAUCACCCAUGUGGGCG [Prefect Exclusion4] (Eterna round: R97, puzzle: Exclusion 4)” the “apparent KD of MS2 coat protein” value (input ligand: FMN 200 uM) was 109 nM and the “apparent KD of MS2 coat protein” value (input ligand: none) was 24.2 nM.
For “GCGCUGUGAGGAUAUUAGUAGUAGAUAAAAUAAACUAUUACUGAGAAGGCACAUGAGGAUCACCCAUGUUGCGC [Eli x4 4.04] (Eterna round: R97, puzzle: Exclusion 4)”, the “apparent KD of MS2 coat protein” value (input ligand: FMN 200 uM) was 24.7 nM and the “apparent KD of MS2 coat protein” value (input ligand: none) was 19.6 nM.
In the case of “GCGGACAAGAUAUAAAUAUCAGAGACAUGAGGAUCACCCAUGUAGGAUAUCGAUUCGAAACGAAUCGAGAAGGGCAUAGUCCGC [JL denovo 1] (Eterna round: R96, puzzle: Exclusion NG 3)”, the “apparent KD of MS2 coat protein” value (input ligand: FMN 200 uM) is reported as 18.8 nM, the “apparent KD of MS2 coat protein” value [1] is reported as 13.8 nM and the “apparent KD of MS2 coat protein” value (input ligand: none) is reported as 18.7 nM.
In the case of “GCGGUACAUGAGGAUCACCCAUGUCAGGAUAUCCGCUGUUUGUUAAUAAACAAGCGGUGGAGAAGGGACUUCGC [-26.2, -25.5 kcal, 27% A] (Eterna round: R97, puzzle: Exclusion 1)”, the “apparent KD of MS2 coat protein” value (input ligand: FMN 200 uM) is reported as 35.2 nM and the “apparent KD of MS2 coat protein” value (input ligand: none) is reported as 31.5 nM.
“GCGUGACAUGAGGAUCACCCAUGUGAGGAUAUCUGGAUAAUUUUUAUUUUAGAUAUCCAGAGAAGGCACAUGCU [Ex1-3: 2Z] (puzzle: Exclusion 1)” was tested, and the “apparent KD of MS2 coat protein” value [2] was 62.4 nM.
For “GCUAACCGAGGAUAUACAUGAGGAUCACCCAUGUUCGAUAUCCUCAUUAGAACUACAUGUAGAAGGCGGUAAGC [Eternabot (Original) Solution 2] (Eterna round: R97, puzzle: Exclusion 3)”, the “apparent KD of MS2 coat protein” value (input ligand: FMN 200 uM) was 15.2 nM and the “apparent KD of MS2 coat protein” value (input ligand: none) was 13.8 nM.
For “GCUAAGGUAGGAUAUUGCGACGUGAACAUGAGGAUCACCCAUGUCUGGUCUGACAGGCAUCAAGAAGGGCCAGUCU [Eternabot (L2) Solution 30] (Eterna round: R97, puzzle: Exclusion 5)”, the “apparent KD of MS2 coat protein” value (input ligand: FMN 200 uM) was 49.7 nM and the “apparent KD of MS2 coat protein” value (input ligand: none) was 62.7 nM.
In the case of “GCUAGGAAUGUCAGGAUAUGCAGAUCCUUGGAUCUGCAGAAGGGACAUGAGGAUCACCCAUGUGCUAACCUAGC [Mat - Exclusion 4 - JL Mod - D7] (Eterna round: R97, puzzle: Brourd's mod of Exclusion 4)”, the “apparent KD of MS2 coat protein” value (input ligand: FMN 200 uM) is reported as 110 nM and the “apparent KD of MS2 coat protein” value (input ligand: none) is reported as 24.3 nM.
For “GCUAUGCAAGGAUAUACAAGAUUAUGACAAGCGUGGAAACGACAUGAGGAUCACCCAUGUAGAAGGUGUUAUGC [Eternabot (L2) Solution 56] (Eterna round: R97, puzzle: Exclusion 2)”, the “apparent KD of MS2 coat protein” value (input ligand: FMN 200 uM) was 58.1 nM and the “apparent KD of MS2 coat protein” value (input ligand: none) was 65.5 nM.
In the case of “GCUCAACAUGAGGAUCACCCAUGUCAGGAUAUGCGAAUUUCAUCAAAAGAUGAAAUUUGCAGAAGGGACUGAGC [Omei Ex1 A31] (Eterna round: R97, puzzle: Exclusion 1)”, the “apparent KD of MS2 coat protein” value (input ligand: FMN 200 uM) is reported as 27.2 nM and the “apparent KD of MS2 coat protein” value (input ligand: none) is reported as 22 nM.
For “GCUCCAGGAGGAUAUGCAUUCGAAAACAUGAGGAUCACCCAUGUAGGUGUCCACGUGCGAGCAGAAGGCCUAAAAC [Riqu] (Eterna round: R97, puzzle: Exclusion 5)”, the “apparent KD of MS2 coat protein” value (input ligand: FMN 200 uM) was 286 nM and the “apparent KD of MS2 coat protein” value (input ligand: none) was 646 nM.
For “GCUGCGCGCUGUCGGGCGUCUGGUCUUGGAGGGAUAGACACAUGAGGAUCACCCAUGUUUCGGGUGUUCUUUCUAUA [JR_Sensorv2_tov2_Sub1512] (Eterna round: R96, puzzle: Sensor v2, turn-off variant 2)”, the “apparent KD of MS2 coat protein” value (input ligand: FMN 200 uM) was 187 nM, the “apparent KD of MS2 coat protein” value [1] was 118 nM and the “apparent KD of MS2 coat protein” value (input ligand: none) was 183 nM.
“GCUGGACGAGGAUAUGCAUUCGUGCUUCGGCACGUAAGGUCACAUGAGGAUCACCCAUGUAGAAGGUGUCCAGC [E2/6-B2] (Eterna round: R97, puzzle: Exclusion 2)” was tested, and the “apparent KD of MS2 coat protein” value (input ligand: FMN 200 uM) was 24.1 nM and the “apparent KD of MS2 coat protein” value (input ligand: none) was 18.4 nM.
With “GCUGGUCGAGGAUAUACAAUCGUGCUUCGGCACGUAAGGUCACAUGAGGAUCACCCAUGUAGAAGGUGACCAGC [E2/2-B1] (Eterna round: R97, puzzle: Exclusion 2)” the “apparent KD of MS2 coat protein” value (input ligand: FMN 200 uM) was 57.7 nM and the “apparent KD of MS2 coat protein” value (input ligand: none) was 20.7 nM.
In the case of “GCUGGUCGAGGAUAUACAUGAGGAUCACCCAUGUGGUUACGUGACGAUAGUCACGAAUGUAGAAGGCGACCAGC [E3/4-A1] (Eterna round: R97, puzzle: Exclusion 3)”, the “apparent KD of MS2 coat protein” value (input ligand: FMN 200 uM) is reported as 2200 nM and the “apparent KD of MS2 coat protein” value (input ligand: none) is reported as 295 nM.
In the case of “GCUGGUCGAGGAUAUGCAUAUACUGGAUACAGUGGAAGGUCACAUGAGGAUCACCCAUGUAGAAGGCGACCAGC [EX2 #36] (Eterna round: R97, puzzle: Exclusion 2)”, the “apparent KD of MS2 coat protein” value (input ligand: FMN 200 uM) is reported as 634 nM and the “apparent KD of MS2 coat protein” value (input ligand: none) is reported as 527 nM.
In the case of “GCUUCGGCAGGAUAUACAAUGAAGUUGAGAAAUCGGCUUCGACAUGAGGAUCACCCAUGUAGAAGGGUUGAAGU [-26.3, -24 kcal, A 32% 3, 3 bis] (Eterna round: R97, puzzle: Exclusion 2)”, the “apparent KD of MS2 coat protein” value (input ligand: FMN 200 uM) is reported as 36.3 nM and the “apparent KD of MS2 coat protein” value (input ligand: none) is reported as 48.6 nM.
With “GCUUCUGGGCAAGGAUAUCCUGCGCUGUUCUGGUUCGUGUCUGUCACAUGAGGAUCACCCAUGUGGGAGAAGGUGCCUGUGGCG [Design 67] (Eterna round: R96, puzzle: Exclusion NG 2)” the “apparent KD of MS2 coat protein” value (input ligand: FMN 200 uM) was 20.9 nM, the “apparent KD of MS2 coat protein” value [1] was 17 nM and the “apparent KD of MS2 coat protein” value (input ligand: none) was 24.8 nM.
For “GCUUGAGCUGUGAGGAUAUUUCGAGUGAAAGCUUGAGAGAAGGCACAUGAGGAUCACCCAUGUAAGGUUCGAGU [-26, -23.9 kcal, A 28%, 1bis-1bis] (Eterna round: R97, puzzle: Brourd's mod of Exclusion 4)”, the “apparent KD of MS2 coat protein” value (input ligand: FMN 200 uM) was 13.6 nM and the “apparent KD of MS2 coat protein” value (input ligand: none) was 13.2 nM.
For “GCUUGUAGAGGAUAUACGAGGGCCCGAGCGGAUAACACCGCACAUGAGGAUCACCCAUGUAGAAGGCUACCACC [Riquinza] (Eterna round: R96, puzzle: Exclusion 2)”, the “apparent KD of MS2 coat protein” value (input ligand: FMN 200 uM) was 331 nM, the “apparent KD of MS2 coat protein” value [1] was 19.1 nM and the “apparent KD of MS2 coat protein” value (input ligand: none) was 27.9 nM.
In the case of “GCUUGUAGAGGAUAUACGAGGGCCCGAGCGGAUAACACCGCACAUGAGGAUCACCCAUGUAGAAGGCUACCACC [Riquinza] (puzzle: Exclusion 2)”, the “apparent KD of MS2 coat protein” value [2] is reported as 20.8 nM.
With “GCUUGUGGGCAAGGAUAUCCUACGCUGUUCUGGUUCGUGUCUGUCACAUGAGGAUCACCCAUGUGGGAGAAGGUGCCUUUGGUG [Design 63] (Eterna round: R96, puzzle: Exclusion NG 2)” the “apparent KD of MS2 coat protein” value (input ligand: FMN 200 uM) was 13.7 nM, the “apparent KD of MS2 coat protein” value [1] was 12.7 nM and the “apparent KD of MS2 coat protein” value (input ligand: none) was 16.2 nM.
In the case of “GCUUUUCUUUUCCUUUCUUACAUGAGGAUCACCCAUGUUUCUUGUCGUGCUCGCGUUGCUCGUCUGUCUGUCUGUUG [salish99_TOv1_r3_077(!)] (puzzle: Sensor v3, turn-off variant 1)”, the “apparent KD of MS2 coat protein” value (Eterna round: R95, input ligand: FMN 200 uM) is reported as 44.4 nM, the “apparent KD of MS2 coat protein” value [2] is reported as 35.1 nM and the “apparent KD of MS2 coat protein” value (Eterna round: R95, input ligand: none) is reported as 50.8 nM.
In the case of “GGAACGACAGGAUAUACAUGAGGAUCACCCAUGUGAGGAAGAGUAAAGUGUGAAGGAGGUAGAAGGGUCAAGAA [AK-MS2ROC-r4-exclusion3-3] (Eterna round: R97, puzzle: Exclusion 3)”, the “apparent KD of MS2 coat protein” value (input ligand: FMN 200 uM) is reported as 63.6 nM and the “apparent KD of MS2 coat protein” value (input ligand: none) is reported as 38.8 nM.
